Experimental data as given in article PMC9482650, “Quantitative fragmentomics allow affinity mapping of interactomes” (Nature Communications, 2022).

T1: APBA2_2, Q99767
T1 sequence (Q99767 654-744, limits assumed, looked up): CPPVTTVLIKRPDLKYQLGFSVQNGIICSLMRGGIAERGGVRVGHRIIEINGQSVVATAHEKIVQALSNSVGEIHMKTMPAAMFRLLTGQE

T2: CARD11, Q9BXL7
T2 sequence (Q9BXL7 662-765, limits assumed, looked up): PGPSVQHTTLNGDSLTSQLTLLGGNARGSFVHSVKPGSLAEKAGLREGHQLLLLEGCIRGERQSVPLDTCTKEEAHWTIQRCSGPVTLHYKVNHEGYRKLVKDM

T3: DFNB31_1, Q9P202
T3 sequence (Q9P202 135-233, limits assumed, looked up): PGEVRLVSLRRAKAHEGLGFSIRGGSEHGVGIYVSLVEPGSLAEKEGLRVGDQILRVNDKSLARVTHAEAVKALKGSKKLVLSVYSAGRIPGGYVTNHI

T4: GRIP1_2, Q9Y3R0
T4 sequence (Q9Y3R0 145-248, limits assumed, looked up): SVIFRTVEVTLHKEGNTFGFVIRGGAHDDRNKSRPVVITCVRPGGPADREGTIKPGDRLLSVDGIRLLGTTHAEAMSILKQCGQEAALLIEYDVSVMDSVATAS

T5: GRIP1_3, Q9Y3R0
T5 sequence (Q9Y3R0 247-346, limits assumed, looked up): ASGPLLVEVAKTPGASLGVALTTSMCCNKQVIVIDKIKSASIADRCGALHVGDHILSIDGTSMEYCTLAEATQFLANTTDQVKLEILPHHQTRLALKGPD

T6: GRIP1_7, Q9Y3R0
T6 sequence (Q9Y3R0 999-1096, limits assumed, looked up): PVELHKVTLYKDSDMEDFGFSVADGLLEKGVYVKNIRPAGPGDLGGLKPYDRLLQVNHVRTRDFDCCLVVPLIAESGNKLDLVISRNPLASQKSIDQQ

T7: LNX2_3, Q8N448
T7 sequence (Q8N448 463-564, limits assumed, looked up): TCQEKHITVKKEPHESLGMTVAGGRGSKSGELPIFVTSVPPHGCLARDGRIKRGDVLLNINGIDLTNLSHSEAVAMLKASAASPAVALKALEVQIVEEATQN

T8: MPDZ_12, O75970
T8 sequence (O75970 1857-1958, limits assumed, looked up): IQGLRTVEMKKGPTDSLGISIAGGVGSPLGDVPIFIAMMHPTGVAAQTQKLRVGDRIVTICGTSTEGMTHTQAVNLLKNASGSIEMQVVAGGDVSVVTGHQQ

T9: NHERF3_3, Q5T2W1
T9 sequence (Q5T2W1 238-333, limits assumed, looked up): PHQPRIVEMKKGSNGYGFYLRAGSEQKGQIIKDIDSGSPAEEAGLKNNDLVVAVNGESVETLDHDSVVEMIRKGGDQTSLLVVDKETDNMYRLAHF

T10: RADIL, Q96JH8
T10 sequence (Q96JH8 971-1071, limits assumed, looked up): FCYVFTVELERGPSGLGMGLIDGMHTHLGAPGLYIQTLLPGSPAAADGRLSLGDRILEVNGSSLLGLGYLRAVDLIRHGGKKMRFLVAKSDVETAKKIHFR

T11: SIPA1L2, Q9P2F8
T11 sequence (Q9P2F8 945-1036, limits assumed, looked up): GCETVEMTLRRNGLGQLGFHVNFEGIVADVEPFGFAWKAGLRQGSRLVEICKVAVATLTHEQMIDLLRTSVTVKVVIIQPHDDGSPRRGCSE


What was measured:
Assay in all cases: holdup assay
Design in all cases: key: below the threshold = too weak to quantify, mostly under pKd 3.1 to 4
Conditions in all cases: plain residues with an end cap or a label only (N-terminal biotin on a linker: ttds)
APBA2_2, Q99767 = biological target: T1, APBA2_2, Q99767
ARHGEF12, Q9NZN5-2 = biological target: ARHGEF12, Q9NZN5-2
CARD11, Q9BXL7 = biological target: T2, CARD11, Q9BXL7
CASK, O14936 = biological target: CASK, O14936
DFNB31_1, Q9P202 = biological target: T3, DFNB31_1, Q9P202
FRMPD2_2, Q68DX3 = biological target: FRMPD2_2, Q68DX3
GRID2IP_1, A4D2P6 = biological target: GRID2IP_1, A4D2P6
GRID2IP_2, A4D2P6 = biological target: GRID2IP_2, A4D2P6
GRIP1_2, Q9Y3R0 = biological target: T4, GRIP1_2, Q9Y3R0
GRIP1_3, Q9Y3R0 = biological target: T5, GRIP1_3, Q9Y3R0
GRIP1_7, Q9Y3R0 = biological target: T6, GRIP1_7, Q9Y3R0
GRIP2_4, Q9C0E4 = biological target: GRIP2_4, Q9C0E4
IL16_1, Q14005 = biological target: IL16_1, Q14005
Inadl_6, Q8NI35 = biological target: Inadl_6, Q8NI35
Inadl_9, Q8NI35 = biological target: Inadl_9, Q8NI35
LIMK2, P53671 = biological target: LIMK2, P53671
LNX1_2, Q8TBB1 = biological target: LNX1_2, Q8TBB1
LNX2_3, Q8N448 = biological target: T7, LNX2_3, Q8N448
MAGI1_1, Q96QZ7 = biological target: MAGI1_1, Q96QZ7
MAGI2_2, Q86UL8 = biological target: MAGI2_2, Q86UL8
MAGI2_5, Q86UL8 = biological target: MAGI2_5, Q86UL8
MPDZ_12, O75970 = biological target: T8, MPDZ_12, O75970
NHERF3_3, Q5T2W1 = biological target: T9, NHERF3_3, Q5T2W1
NHERF4_4, Q86UT5 = biological target: NHERF4_4, Q86UT5
PDLIM1, O00151 = biological target: PDLIM1, O00151
RADIL, Q96JH8 = biological target: T10, RADIL, Q96JH8
SIPA1L2, Q9P2F8 = biological target: T11, SIPA1L2, Q9P2F8

Sequence of GRIP2_4, Q9C0E4 (Q9C0E4 446-548): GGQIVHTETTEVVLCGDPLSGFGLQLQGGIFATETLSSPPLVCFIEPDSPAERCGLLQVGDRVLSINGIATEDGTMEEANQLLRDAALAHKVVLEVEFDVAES
Sequence of GRID2IP_1, A4D2P6 (A4D2P6 1-87): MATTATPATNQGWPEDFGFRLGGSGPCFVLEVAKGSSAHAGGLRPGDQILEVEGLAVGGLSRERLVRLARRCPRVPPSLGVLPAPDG
Sequence of IL16_1, Q14005 (Q14005 210-306): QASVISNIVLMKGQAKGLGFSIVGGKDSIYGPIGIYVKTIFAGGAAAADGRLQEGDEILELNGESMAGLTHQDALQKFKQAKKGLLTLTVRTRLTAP
Sequence of MAGI2_5, Q86UL8 (Q86UL8 915-1017): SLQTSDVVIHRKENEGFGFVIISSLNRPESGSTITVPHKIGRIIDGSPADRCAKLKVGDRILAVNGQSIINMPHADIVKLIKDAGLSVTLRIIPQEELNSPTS
Sequence of ARHGEF12, Q9NZN5-2 (Q9NZN5 other isoform, or with tags, fused parts or gaps): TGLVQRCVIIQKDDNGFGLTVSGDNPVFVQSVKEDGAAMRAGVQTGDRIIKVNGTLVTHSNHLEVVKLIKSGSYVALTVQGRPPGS
Sequence of NHERF4_4, Q86UT5 (Q86UT5 464-550): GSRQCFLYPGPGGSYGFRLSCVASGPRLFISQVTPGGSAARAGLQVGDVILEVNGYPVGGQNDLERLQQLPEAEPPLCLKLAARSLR
Sequence of MAGI2_2, Q86UL8 (Q86UL8 410-522): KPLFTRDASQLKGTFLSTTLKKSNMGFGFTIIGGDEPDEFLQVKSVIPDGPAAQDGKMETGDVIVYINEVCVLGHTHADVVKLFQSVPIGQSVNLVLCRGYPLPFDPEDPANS
Sequence of CASK, O14936 (O14936 487-570): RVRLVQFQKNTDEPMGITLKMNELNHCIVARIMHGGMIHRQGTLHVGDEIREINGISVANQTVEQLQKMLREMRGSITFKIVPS
Sequence of LIMK2, P53671 (P53671 143-248): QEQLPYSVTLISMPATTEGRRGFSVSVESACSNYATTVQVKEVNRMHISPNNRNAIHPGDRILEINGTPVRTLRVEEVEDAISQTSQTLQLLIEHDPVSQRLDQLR
Sequence of Inadl_6, Q8NI35 (Q8NI35 1058-1167): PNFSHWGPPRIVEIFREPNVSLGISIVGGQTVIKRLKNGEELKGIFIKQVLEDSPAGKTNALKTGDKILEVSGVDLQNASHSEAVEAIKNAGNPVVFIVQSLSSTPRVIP
Sequence of PDLIM1, O00151 (O00151 1-87): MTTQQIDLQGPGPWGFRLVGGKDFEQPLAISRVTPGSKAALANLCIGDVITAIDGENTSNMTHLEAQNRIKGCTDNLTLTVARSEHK
Sequence of FRMPD2_2, Q68DX3 (Q68DX3 944-1038): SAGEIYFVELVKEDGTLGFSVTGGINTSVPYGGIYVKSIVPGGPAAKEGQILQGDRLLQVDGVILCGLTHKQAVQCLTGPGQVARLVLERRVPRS
Sequence of LNX1_2, Q8TBB1 (Q8TBB1 371-470): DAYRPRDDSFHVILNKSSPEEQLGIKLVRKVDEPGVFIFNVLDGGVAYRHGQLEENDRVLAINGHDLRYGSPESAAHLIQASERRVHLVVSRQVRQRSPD
Sequence of MAGI1_1, Q96QZ7 (Q96QZ7 1-106): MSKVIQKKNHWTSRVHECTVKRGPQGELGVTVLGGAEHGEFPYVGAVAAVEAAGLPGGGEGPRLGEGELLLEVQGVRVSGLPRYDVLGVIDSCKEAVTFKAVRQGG
Sequence of Inadl_9, Q8NI35 (Q8NI35 1530-1615): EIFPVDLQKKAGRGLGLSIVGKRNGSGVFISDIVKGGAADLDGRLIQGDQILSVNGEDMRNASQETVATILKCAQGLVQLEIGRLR
Sequence of GRID2IP_2, A4D2P6 (A4D2P6 272-370): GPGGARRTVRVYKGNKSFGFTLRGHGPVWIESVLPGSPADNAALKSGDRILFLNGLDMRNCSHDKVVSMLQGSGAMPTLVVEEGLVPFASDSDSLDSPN

| Binder | pKd (APBA2_2, Q99767) | pKd (ARHGEF12, Q9NZN5-2) | pKd (CARD11, Q9BXL7) | pKd (CASK, O14936) | pKd (DFNB31_1, Q9P202) | pKd (FRMPD2_2, Q68DX3) | pKd (GRID2IP_1, A4D2P6) | pKd (GRIP1_2, Q9Y3R0) | pKd (GRIP1_3, Q9Y3R0) | pKd (GRIP1_7, Q9Y3R0) | pKd (GRIP2_4, Q9C0E4) | pKd (IL16_1, Q14005) | pKd (Inadl_6, Q8NI35) | pKd (Inadl_9, Q8NI35) | pKd (LIMK2, P53671) | pKd (LNX1_2, Q8TBB1) | pKd (LNX2_3, Q8N448) | pKd (MAGI1_1, Q96QZ7) | pKd (MAGI2_2, Q86UL8) | pKd (MAGI2_5, Q86UL8) | other results |
| --- | --- | --- | --- | --- | --- | --- | --- | --- | --- | --- | --- | --- | --- | --- | --- | --- | --- | --- | --- | --- | --- |
| PRVKPQRSKV [PPP1R13L, Q8WUF5] | below the threshold | 3.54 | below the threshold | below the threshold | below the threshold | below the threshold | below the threshold | below the threshold | below the threshold | below the threshold | below the threshold | below the threshold | below the threshold | below the threshold | below the threshold | below the threshold | below the threshold | below the threshold | 3.79 | below the threshold | pKd (GRID2IP_2, A4D2P6): 4.51; pKd (MPDZ_12, O75970): below the threshold; pKd (NHERF3_3, Q5T2W1): below the threshold; pKd (NHERF4_4, Q86UT5): below the threshold; pKd (PDLIM1, O00151): below the threshold; pKd (RADIL, Q96JH8): below the threshold; pKd (SIPA1L2, Q9P2F8): below the threshold |
| NDPAWDETNL [ARHGEF7, Q14155;Q14155-1] | below the threshold | 4.03 | below the threshold | below the threshold | 4.07 | below the threshold | below the threshold | below the threshold | below the threshold | below the threshold | below the threshold | below the threshold | 4.09 | below the threshold | below the threshold | below the threshold | below the threshold | below the threshold | below the threshold | below the threshold | pKd (MPDZ_12, O75970): below the threshold; pKd (NHERF3_3, Q5T2W1): below the threshold; pKd (NHERF4_4, Q86UT5): below the threshold; pKd (PDLIM1, O00151): below the threshold; pKd (RADIL, Q96JH8): below the threshold; pKd (SIPA1L2, Q9P2F8): below the threshold |
| SKPTRRETEV [HPV35-E6, P27228] | below the threshold | 4.06 | below the threshold | below the threshold | below the threshold | below the threshold | below the threshold | below the threshold | below the threshold | below the threshold | below the threshold | below the threshold | below the threshold | below the threshold | below the threshold | below the threshold | below the threshold | below the threshold | 4.93 | 4.18 | pKd (GRID2IP_2, A4D2P6): below the threshold; pKd (MPDZ_12, O75970): below the threshold; pKd (NHERF3_3, Q5T2W1): below the threshold; pKd (NHERF4_4, Q86UT5): below the threshold; pKd (PDLIM1, O00151): below the threshold; pKd (RADIL, Q96JH8): below the threshold; pKd (SIPA1L2, Q9P2F8): below the threshold |
